Measured values from publication doi:10.1101/2021.12.03.471045 (bioRxiv, 2021).

Molecular target: early pandemic (Wuhan) SARS-CoV-2 RBD (SARS-CoV-2, UniProt P0DTC2)
Assay: SPR
Conditions: both partners purified

B1: EY6A mAb (IgG) (antibody, V domains shown)
VH: EVQLVESGGGVVQPGRSLRLSCAASAFTFSSYDMHWVRQAPGKGLEWVAVISYDGSNKYYADSVKGRFTISRDNSKNTLYLQMNSLRAEDTAVYYCAKDGGKLWVYYFDYWGQGTLVTVSS
VL: not shown
B1 gave a Kd of 7.8 nM.
